Common to all, as to conditions: 50 mM Tris-HCl pH 8.0, 25°C
Substrate in data set [1]: Oc1ccc(Cl)c(Cl)c1O
As to the kind of experiment: purified protein.

Substrate in data set [2]: Oc1cccc(Cl)c1O
In words: purified protein.

Substrate in data set [3]: Oc1ccc(Cl)cc1O
As to the kind of experiment: purified protein.

Substrate in data set [4]: Oc1ccccc1O
As to the kind of experiment: spectrophotometric ring-cleavage assay, A260. Format: biochemical, Diaphorobacter sp. JS3051.

Substrate in data set [5]: Cc1cccc(O)c1O
In words: spectrophotometric ring-cleavage assay, A260. Format: biochemical, Diaphorobacter sp. JS3051.

Substrate in data set [6]: Cc1ccc(O)c(O)c1
As to the kind of experiment: spectrophotometric ring-cleavage assay, A260. Format: biochemical, Diaphorobacter sp. JS3051.

Data on one protein can be found in paper PMC8406286, “A Recently Assembled Degradation Pathway for 2,3-Dichloronitrobenzene in Diaphorobacter sp. Strain JS3051” (mBio, 2021).

B1: H6-DccA (Diaphorobacter sp. JS3051) (protein)
chain: MDKRVAEVAGAIVEAVRKILLDKRVTEAEYRAGVDYLTEVAQTRETAVLLDAFLNSTIIEGKAQRSRTSAPGMQGPYFLEGAPVVEGVLKTYDTDDHKPLIIRGTVRSDTGELLAGAVIDVWHSTPDGLYSGIHDNIPMDYYRGKLVTDSQGNFRVRTTMPVPYQIPYEGPTGRLLGHLGSHTWRPAHVHFKVRKDGFEPLTTQYYFEGGKWVDDDCCHGVTPDLITPETIEDGVRVMTLDFVIEREQAEQRKSATETVA
notes: full-length gene in pET-28a(+) (NdeI/BamHI), N-terminal 6xHis tag, purified from E. coli BL21(DE3)
With B1, the Km in “purified protein [1]” turned out to be 0.48 ± 0.10 µM; in “purified protein [2]”, 2.58 ± 0.38 µM; in “purified protein [3]”, 0.73 ± 0.06 µM; in data set [4], 9.06 ± 0.88 µM; in data set [5] it was 12.85 ± 1.52 µM; in data set [6], 10.40 ± 1.35 µM. Moreover, the Vmax came to 0.43 µM/min in the data set “purified protein [1]”; 0.42 µM/min in “purified protein [2]”; 0.78 µM/min in the data set “purified protein [3]”; 0.44 µM/min in data set [4]; 0.63 µM/min in data set [5]; 4.63 µM/min in data set [6]. Besides, the turnover number (kcat) in “purified protein [1]” came out at 0.355 s⁻¹; in “purified protein [2]”, 0.35 s⁻¹; in the data set “purified protein [3]” it was 0.653 s⁻¹; in data set [4], 0.363 s⁻¹; in data set [5] it was 0.525 s⁻¹; in data set [6] it was 3.86 s⁻¹. In addition, the kcat/Km in the data set “purified protein [1]” was found to be 737000 M⁻¹ s⁻¹; in the data set “purified protein [2]”, 135000 M⁻¹ s⁻¹; in the data set “purified protein [3]”, 893000 M⁻¹ s⁻¹; in data set [4] it was 40000 M⁻¹ s⁻¹; in data set [5], 41700 M⁻¹ s⁻¹; in data set [6] it was 372000 M⁻¹ s⁻¹.

One may read the Km as the substrate concentration at which the rate is half of its maximum. By Vmax is commonly meant the top rate of the reaction or transport when substrate is in excess. One may read the kcat as the number of substrate molecules converted per active site and unit of time at saturation. For orientation: kcat/Km means the turnover number divided by the Michaelis constant.
